The nature of data set [1]: Ca2+ release assay, Daoy cells. Conditions: glycan lost; control: Siglec-15-flag (wild type).
The nature of data set [2]: plasma membrane Siglec-15 level. Conditions: glycan lost; control: Siglec-15-flag (wild type).
Data set [3] can be described thus: immunostaining flag/lamp1, Pearson's correlation. Conditions: glycan lost; control: Siglec-15-flag (wild type).
For data set [4], the target named is CI-MPR used for biolayer interferometry (UniProt P11717 41-2491). The data set can be described thus: BLI. Background: BLI is a label-free optical method that tracks binding on a fibre tip over time.
Data set [5] concerns the target T1, recombinant human TRPML1 E1 domain (human).
T1 chain: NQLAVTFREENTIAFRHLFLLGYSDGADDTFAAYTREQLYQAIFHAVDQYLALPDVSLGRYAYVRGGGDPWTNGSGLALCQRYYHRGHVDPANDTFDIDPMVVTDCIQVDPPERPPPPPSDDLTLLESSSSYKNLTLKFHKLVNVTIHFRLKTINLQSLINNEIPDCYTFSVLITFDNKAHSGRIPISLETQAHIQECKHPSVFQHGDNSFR
The data set can be described thus: BLI.

B1: Siglec-15: N172Q (protein)
parent chain: MEKSIWLLACLAWVLPTGSFVRTKIDTTENLLNTEVHSSPAQRWSMQVPPEVSAEAGDAAVLPCTFTHPHRHYDGPLTAIWRAGEPYAGPQVFRCAAARGSELCQTALSLHGRFRLLGNPRRNDLSLRVERLALADDRRYFCRVEFAGDVHDRYESRHGVRLHVTAAPRIVNISVLPSPAHAFRALCTAEGEPPPALAWSGPALGNSLAAVRSPREGHGHLVTAELPALTHDGRYTCTAANSLGRSEASVYLFRFHGASGASTVALLLGALGFKALLLLGVLAARAARRRPEHLDTPDTPPRSQAQESNYENLSQMNPRSPPATMCSP
Consider B1, for which the “other: lysosomal Ca2+ release” value in data set [1] is “decreases”. Besides, the localisation_or_trafficking result is listed as “no change” in data set [2] and “decreases” in data set [3].

B2: recombinant Siglec-15-N (263 AAs) (domain or fragment)
chain: FVRTKIDTTENLLNTEVHSSPAQRWSMQVPPEVSAEAGDAAVLPCTFTHPHRHYDGPLTAIWRAGEPYAGPQVFRCAAARGSELCQTALSLHGRFRLLGNPRRNDLSLRVERLALADDRRYFCRVEFAGDVHDRYESRHGVRLHVTAAPRIVNISVLPSPAHAFRALCTAEGEPPPALAWSGPALGNSLAAVRSPREGHGHLVTAELPALTHDGRYTCTAANSLGRSEASVYLFRFHGASGAST
For orientation: Kd means a measure of binding affinity in units of concentration. Regarding B2, the Kd amounted to 1.04 nM in data set [4] and 0.499 nM in data set [5].

Source of the values: article PMC13161473 (2025).
